Test system: Escherichia coli TOP10
Assay: shrunken log2 fold change of peptide-encoding DNA abundance (4.5 h post-induction vs induction); higher = less antimicrobial activity (less host growth inhibition)
Settings: time post-induction: 4.5 h; library: site-saturation at positions 5, 18, 19, 20
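Note: peptides expressed intracellularly from a pBAD plasmid library in pooled LB shake-flask culture, induced with 0.3% L-arabinose, DNA abundance read by NGS, three biological replicates, DESeq2 with apeglm shrinkage.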

RRIRHRPPRLPRPRPRPWTFPRP
shrunken log2 fold change: -0.229

RRIRHRPPRLPRPRPRPWTHPRP
shrunken log2 fold change: -0.00208

RRIRHRPPRLPRPRPRPWTVPRP
shrunken log2 fold change: -0.217

RRIRHRPPRLPRPRPRPWVPPRP
shrunken log2 fold change: -0.408

RRIRHRPPRLPRPRPRPWYGPRP
shrunken log2 fold change: -0.779

RRIRHRPPRLPRPRPRPYADPRP
shrunken log2 fold change: -0.00783

RRIRHRPPRLPRPRPRPYAEPRP
shrunken log2 fold change: -0.0381

RRIRHRPPRLPRPRPRPYDSPRP
shrunken log2 fold change: -0.0275

RRIRHRPPRLPRPRPRPYDYPRP
shrunken log2 fold change: -0.276

RRIRHRPPRLPRPRPRPYFGPRP
shrunken log2 fold change: -0.131

RRIRHRPPRLPRPRPRPYGWPRP
shrunken log2 fold change: -0.145

RRIRHRPPRLPRPRPRPYIEPRP
shrunken log2 fold change: -0.68

RRIRHRPPRLPRPRPRPYLGPRP
shrunken log2 fold change: -0.403

RRIRHRPPRLPRPRPRPYLKPRP
shrunken log2 fold change: -0.298

RRIRHRPPRLPRPRPRPYMAPRP
shrunken log2 fold change: -0.339

RRIRHRPPRLPRPRPRPYMIPRP
shrunken log2 fold change: -0.025

RRIRHRPPRLPRPRPRPYNNPRP
shrunken log2 fold change: -0.819

RRIRHRPPRLPRPRPRPYNQPRP
shrunken log2 fold change: -0.342

RRIRHRPPRLPRPRPRPYPEPRP
shrunken log2 fold change: -0.267

RRIRHRPPRLPRPRPRPYQEPRP
shrunken log2 fold change: -0.138

RRIRHRPPRLPRPRPRPYQKPRP
shrunken log2 fold change: -0.01

RRIRHRPPRLPRPRPRPYRFPRP
shrunken log2 fold change: -0.269

RRIRHRPPRLPRPRPRPYRIPRP
shrunken log2 fold change: -0.231

RRIRHRPPRLPRPRPRPYRSPRP
shrunken log2 fold change: 0.0215

RRIRHRPPRLPRPRPRPYSFPRP
shrunken log2 fold change: -0.299

RRIRHRPPRLPRPRPRPYSNPRP
shrunken log2 fold change: -0.392

RRIRHRPPRLPRPRPRPYTPPRP
shrunken log2 fold change: -1.32

RRIRIRPPRLPRPRPRPAAHPRP
shrunken log2 fold change: -0.0526

RRIRIRPPRLPRPRPRPAAKPRP
shrunken log2 fold change: 0.463

RRIRIRPPRLPRPRPRPACAPRP
shrunken log2 fold change: -0.149

RRIRIRPPRLPRPRPRPACQPRP
shrunken log2 fold change: 0.0224

RRIRIRPPRLPRPRPRPADWPRP
shrunken log2 fold change: 0.218

RRIRIRPPRLPRPRPRPAFDPRP
shrunken log2 fold change: -0.295

RRIRIRPPRLPRPRPRPAGEPRP
shrunken log2 fold change: 0.171

RRIRIRPPRLPRPRPRPAGFPRP
shrunken log2 fold change: 0.0153

RRIRIRPPRLPRPRPRPAGGPRP
shrunken log2 fold change: 0.3

RRIRIRPPRLPRPRPRPAIAPRP
shrunken log2 fold change: -0.206

RRIRIRPPRLPRPRPRPAIYPRP
shrunken log2 fold change: -0.00708

RRIRIRPPRLPRPRPRPAKLPRP
shrunken log2 fold change: -0.302

RRIRIRPPRLPRPRPRPALLPRP
shrunken log2 fold change: 0.178

RRIRIRPPRLPRPRPRPALYPRP
shrunken log2 fold change: -0.312

RRIRIRPPRLPRPRPRPANPPRP
shrunken log2 fold change: -0.29

RRIRIRPPRLPRPRPRPAQAPRP
shrunken log2 fold change: 0.2

RRIRIRPPRLPRPRPRPAQEPRP
shrunken log2 fold change: -0.0756

RRIRIRPPRLPRPRPRPARIPRP
shrunken log2 fold change: -0.0826

RRIRIRPPRLPRPRPRPARPPRP
shrunken log2 fold change: 0.474

RRIRIRPPRLPRPRPRPARSPRP
shrunken log2 fold change: 0.0389

RRIRIRPPRLPRPRPRPATTPRP
shrunken log2 fold change: -0.145

RRIRIRPPRLPRPRPRPAVQPRP
shrunken log2 fold change: -0.107

RRIRIRPPRLPRPRPRPAYCPRP
shrunken log2 fold change: -0.23

RRIRIRPPRLPRPRPRPAYDPRP
shrunken log2 fold change: -0.325

RRIRIRPPRLPRPRPRPCALPRP
shrunken log2 fold change: 0.00316

RRIRIRPPRLPRPRPRPCARPRP
shrunken log2 fold change: 0.039

RRIRIRPPRLPRPRPRPCCGPRP
shrunken log2 fold change: -0.252

RRIRIRPPRLPRPRPRPCCIPRP
shrunken log2 fold change: -2.25

RRIRIRPPRLPRPRPRPCCVPRP
shrunken log2 fold change: -0.726

RRIRIRPPRLPRPRPRPCDNPRP
shrunken log2 fold change: -0.178

RRIRIRPPRLPRPRPRPCDVPRP
shrunken log2 fold change: -0.124

RRIRIRPPRLPRPRPRPCEKPRP
shrunken log2 fold change: -0.626

RRIRIRPPRLPRPRPRPCEPPRP
shrunken log2 fold change: -0.28

— the supplement of paper PMC9112550, “Optimization of the antimicrobial peptide Bac7 by deep mutational scanning” (BMC Biology, 2022)
